Several values for one entry are separate records, joined by “and”; a condition that tells them apart may be missing. Equal entries are not always repeated.
Test system: BL-2 cells (lymphoid)
Assay: Flow cytometry staining before and after induction of apoptosis, BL-2
Format: cell-based, human
Details: single replicates, listed as Ann V
Method: Fig. 2 Apo-15 binds to apoptotic cells of different origin in multiple environments. a Representative fluorescence confocal microscopy images (from three independent experiments) human apoptotic (yellow arrows) and viable (white arrows) cells from different lineages: BL-2 (lymphoid), neutrophils (myeloid), and primary airway epithelial cells (epithelial). Cells were incubated with Apo-15 (100 nM, green), AF647-Annexin V (5 nM, red), and Hoechst 33342 (7 μM, blue) for 10 min and imaged under a fluorescence confocal microscope (λexc.: 405, 488, 633 nm: λem.: 450, 525, 670 nm). Scale bars: 10 µm. b Divalent cation-independent binding of Apo-15 to apoptotic cells of different origin (top plots: lymphoid cells, bottom plots: myeloid cells). Mixtures of apoptotic (highlighted in green dots) and viable cells (highlighted in black dots) were stained with AF647-Annexin V (25 nM) and Apo-15 (100 nM) in the presence of 2 mM CaCl2 (left) or 2.5 mM EDTA (right). Representative histograms showing Apo-15 binding (x-axis) vs AF647-Annexin V binding (y-axis) acquired on 5L LSR flow cytometer (n = 5). c Cells were sorted on their Apo-15 positivity (green populations in panel b) or negativity (black populations in panel b). Gating strategy in Supplementary Fig. 7. Morphological analysis (four independent images from two independent experiments) of cytocentrifuge preparations of Apo-15-positive and Apo-15-negative cells under brightfield microscopy (scale bar: 10 µm). d Quantification of fluorescence staining of neutrophils (myeloid, n ≥ 5), BL-2 cells (lymphoid, n ≥ 3) and primary airway epithelial cells (epithelial, n = 5) before and after induction of apoptosis and upon treatment with Apo-15 and AF647-Annexin V. Data acquired on 5 L LSR flow cytometer and presented as mean values ± SEM. P values obtained from two-tailed t tests. Source data (in d) are provided as a Source data file. […]
All apopeptides were reconstituted at 5 mM in DMSO. […] Fluorescence emission was measured on a 5 L LSR flow cytometer (BD). […]

B1: Annexin V: fluorescently-labeled (AF647) annexin V, PS-binding protein (protein, UniProt P08758 2-320, looked up)
Annexin A5: AQVLRGTVTDFPGFDERADAETLRKAMKGLGTDEESILTLLTSRSNAQRQEISAAFKTLFGRDLLDDLKSELTGKFEKLIVALMKPSRLYDAYELKHALKGAGTNEKVLTEIIASRTPEELRAIKQVYEEEYGSSLEDDVVGDTSGYYQRMLVVLLQANRDPDAGIDEAQVEQDAQALFQAGELKWGTDEEKFITIFGTRSVSHLRKVFDKYMTISGFQIEETIDRETSGNLEQLLLAVVKSIRSIPAYLAETLYYAMKGAGTDDHTLIRVMVSRSEIDLFNIRKEFRKNFATSLYSMIKGDTSGDYKKALLLLCGEDD
modifications: AF647 label
Stained cells (flow cytometry) (BL-2 0h UV): 25.4% and 28.9% and 10.3% | Stained cells (flow cytometry) (BL-2 3h UV, EDTA): 1.4% and 1.1% and 2.6% | Stained cells (flow cytometry) (BL-2 3h UV): 86.9% and 45.3% and 46.5% and 34.9%
